Measured values as given in patent US20210253718A1, “FRIZZLED5 PROTEIN-BINDING AGENTS” (Modmab Therapeutics Corporation, priority 2016, published 2021).

Columns and labels:
FZD10 CRD = target: T1, FZD10 CRD (Homo sapiens, UniProt Q9ULW2); test: Immunofluorescence of anti-FZD5 Fab binding to CHO cells overexpressing Frizzled CRD; parameters: key: −: no binding; +: very weak binder; ++: weak binder; +++: good binder; ++++: very good binder
T1 construct: 30-156; GPI anchor signal (C); expressed in transfected cells; host or cells: CHO cells, lentiviral pLenti-puro
T1 sequence (Q9ULW2 30-156): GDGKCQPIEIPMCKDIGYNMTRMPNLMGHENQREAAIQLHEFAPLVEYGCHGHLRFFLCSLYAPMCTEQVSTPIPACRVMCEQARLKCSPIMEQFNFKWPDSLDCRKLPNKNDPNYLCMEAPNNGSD
Outline: (§1)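 Immunofluorescence readout of anti-FZD5 Fab staining on CHO cells ectopically overexpressing a single Frizzled cysteine-rich domain. Each CRD was fused to a myc tag and GPI anchor for plasma-membrane display; flow cytometry was run in parallel.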

FZD3 CRD = target: T2, FZD3 CRD (Homo sapiens, UniProt Q9NPG1); test: as above; parameters: key: −: no binding; +: very weak binder; ++: weak binder; +++: good binder; ++++: very good binder
T2 construct: CRD of FZD1, FZD2, FZD3, FZD4, FZD5, FZD6, FZD7, FZD8, FZD9 or FZD10; GPI anchor signal (C); expressed in transfected cells; host or cells: CHO cells, lentiviral pLenti-puro
T2 sequence (Q9NPG1 23-136 limits assumed): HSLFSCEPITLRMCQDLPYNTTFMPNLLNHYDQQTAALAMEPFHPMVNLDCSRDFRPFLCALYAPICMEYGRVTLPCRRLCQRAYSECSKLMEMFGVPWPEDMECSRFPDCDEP
Outline: as §1

FZD4 CRD = target: T3, FZD4 CRD (Homo sapiens, UniProt Q9ULV1); test: as above; parameters: key: −: no binding; +: very weak binder; ++: weak binder; +++: good binder; ++++: very good binder
T3 construct: E42-V167; GPI anchor signal (C); expressed in transfected cells; host or cells: CHO cells, lentiviral pLenti-puro
T3 sequence (Q9ULV1 42-167): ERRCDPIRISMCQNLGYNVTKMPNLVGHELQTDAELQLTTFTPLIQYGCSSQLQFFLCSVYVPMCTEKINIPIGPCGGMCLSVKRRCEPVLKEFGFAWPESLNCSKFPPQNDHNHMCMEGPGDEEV
Outline: as §1

FZD5 CRD = target: T4, FZD5 CRD (Homo sapiens, UniProt Q13467); test: as above; parameters: key: −: no binding; +: very weak binder; ++: weak binder; +++: good binder; ++++: very good binder
T4 construct: K29-T156; GPI anchor signal (C); expressed in transfected cells; host or cells: CHO cells, lentiviral pLenti-puro
T4 sequence (Q13467 29-156): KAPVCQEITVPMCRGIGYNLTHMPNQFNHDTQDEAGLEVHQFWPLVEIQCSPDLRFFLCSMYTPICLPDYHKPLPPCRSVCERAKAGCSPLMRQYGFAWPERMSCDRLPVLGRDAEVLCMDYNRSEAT
Outline: as §1

FZD6 CRD = target: T5, FZD6 CRD (Homo sapiens, UniProt O60353); test: as above; parameters: key: −: no binding; +: very weak binder; ++: weak binder; +++: good binder; ++++: very good binder
T5 construct: S20-P146; GPI anchor signal (C); expressed in transfected cells; host or cells: CHO cells, lentiviral pLenti-puro
T5 sequence (O60353 20-146): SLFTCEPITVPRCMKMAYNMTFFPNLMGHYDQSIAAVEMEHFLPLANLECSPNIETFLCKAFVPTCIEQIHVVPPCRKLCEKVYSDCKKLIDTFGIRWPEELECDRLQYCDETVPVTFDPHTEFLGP
Outline: as §1

FZD8 CRD = target: T6, FZD8 CRD (Homo sapiens, UniProt Q9H461); test: as above; parameters: key: −: no binding; +: very weak binder; ++: weak binder; +++: good binder; ++++: very good binder
T6 construct: K31-D155; GPI anchor signal (C); expressed in transfected cells; host or cells: CHO cells, lentiviral pLenti-puro
T6 sequence (Q9H461 31-155): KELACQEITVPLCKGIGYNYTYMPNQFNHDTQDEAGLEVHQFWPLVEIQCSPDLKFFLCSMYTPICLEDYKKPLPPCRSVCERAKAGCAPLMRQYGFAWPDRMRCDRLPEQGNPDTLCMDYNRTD
Outline: as §1

ASPC-1 cells = test: Effect of anti-FZD5 Fabs on proliferation of pancreatic cancer cell lines (percent growth inhibition); type: cell-based, human; settings: Fab 2 μg/ml
RWP1 cells = test: as above; type: cell-based, human; settings: Fab 2 μg/ml

Molecule | Immunofluorescence binding, Frizzled CRD overexpressed on CHO cells: FZD10 (FZD10 CRD) | Immunofluorescence binding, Frizzled CRD overexpressed on CHO cells: FZD3 (FZD3 CRD) | Immunofluorescence binding, Frizzled CRD overexpressed on CHO cells: FZD4 (FZD4 CRD) | Immunofluorescence binding, Frizzled CRD overexpressed on CHO cells: FZD5 (FZD5 CRD) | Immunofluorescence binding, Frizzled CRD overexpressed on CHO cells: FZD6 (FZD6 CRD) | Immunofluorescence binding, Frizzled CRD overexpressed on CHO cells: FZD8 (FZD8 CRD) | percent growth inhibition, ASPC-1 2 μg/ml (ASPC-1 cells) | percent growth inhibition, RWP1 2 μg/ml (RWP1 cells)
Fab-2919: anti-FZD5 Fab with antibody variable region Fv-2919; CDR SEQ ID NOs: 35, 36, 58, 97, 134, 155 (antibody, V domains shown) VH: EVQLVESGGGLVQPGGSLRLSCAASGFNISYSYIHWVRQAPGKGLEWVASIYSSSGSTSYADSVKGRFTISADTSKNTAYLQMNSLRAEDTAVYYCARGAIDYWGQGTLVTVSS VL: DIQMTQSPSSLSASVGDRVTITCRASQSVSSAVAWYQQKPGKAPKLLIYSASSLYSGVPSRFSGSRSGTDFTLTISSLQPEDFATYYCQQWYSSGHVLITFGQGTKVEIK | − | − | − | ++++ | − | ++ | 30.04% | 7.36%
Fab-2920: anti-FZD5 Fab with antibody variable region Fv-2920; CDR SEQ ID NOs: 35, 36, 59, 98, 135, 170 (antibody, V domains shown) VH: EVQLVESGGGLVQPGGSLRLSCAASGFNISYYYIHWVRQAPGKGLEWVASIYPSSGSTSYADSVKGRFTISADTSKNTAYLQMNSLRAEDTAVYYCARGGMDYWGQGTLVTVSS VL: DIQMTQSPSSLSASVGDRVTITCRASQSVSSAVAWYQQKPGKAPKLLIYSASSLYSGVPSRFSGSRSGTDFTLTISSLQPEDFATYYCQQWFAGALITFGQGTKVEIK | − | − | − | ++++ | − | + | 33.66% | −16.26%
Fab-2923: anti-FZD5 Fab with antibody variable region Fv-2923; CDR SEQ ID NOs: 35, 36, 62, 100, 138, 162 (antibody, V domains shown) VH: EVQLVESGGGLVQPGGSLRLSCAASGFNLYYYYMHWVRQAPGKGLEWVASIYSSSGSTSYADSVKGRFTISADTSKNTAYLQMNSLRAEDTAVYYCARGAMDYWGQGTLVTVSS VL: DIQMTQSPSSLSASVGDRVTITCRASQSVSSAVAWYQQKPGKAPKLLIYSASSLYSGVPSRFSGSRSGTDFTLTISSLQPEDFATYYCQQWYGYSALITFGQGTKVEIK | − | − | − | ++++ | − | + | 35.27% | 35.90%
Fab-2924: anti-FZD5 Fab with antibody variable region Fv-2924; CDR SEQ ID NOs: 35, 36, 63, 101, 139, 153 (antibody, V domains shown) VH: EVQLVESGGGLVQPGGSLRLSCAASGFNISYSYIHWVRQAPGKGLEWVASIYSYYSSTSYADSVKGRFTISADTSKNTAYLQMNSLRAEDTAVYYCARGALDYWGQGTLVTVSS VL: DIQMTQSPSSLSASVGDRVTITCRASQSVSSAVAWYQQKPGKAPKLLIYSASSLYSGVPSRFSGSRSGTDFTLTISSLQPEDFATYYCQQWYSGHSLITFGQGTKVEIK | − | − | − | ++++ | − | + | 8.55% | 42.76%
Fab-2921: anti-FZD5 Fab with antibody variable region Fv-2921; CDR SEQ ID NOs: 35, 36, 60, 98, 136, 162 (antibody, V domains shown) VH: EVQLVESGGGLVQPGGSLRLSCAASGFNISYYYIHWVRQAPGKGLEWVASIYPSSGSTSYADSVKGRFTISADTSKNTAYLQMNSLRAEDTAVYYCARGAMDYWGQGTLVTVSS VL: DIQMTQSPSSLSASVGDRVTITCRASQSVSSAVAWYQQKPGKAPKLLIYSASSLYSGVPSRFSGSRSGTDFTLTISSLQPEDFATYYCQQWYAGSLITFGQGTKVEIK | − | − | − | ++++ | − | + | 43.20% | −4.47%
Fab-2922: anti-FZD5 Fab with antibody variable region Fv-2922; CDR SEQ ID NOs: 35, 36, 61, 99, 137, 171 (antibody, V domains shown) VH: EVQLVESGGGLVQPGGSLRLSCAASGFNIYSSYMHWVRQAPGKGLEWVASISPYSGYTSYADSVKGRFTISADTSKNTAYLQMNSLRAEDTAVYYCARTVRGSKKPYFSGWAMDYWGQGTLVTVSS VL: DIQMTQSPSSLSASVGDRVTITCRASQSVSSAVAWYQQKPGKAPKLLIYSASSLYSGVPSRFSGSRSGTDFTLTISSLQPEDFATYYCQQSFVYPYLITFGQGTKVEIK | − | − | − | ++++ | − | + | 14.47% | −6.96%
